Data published in patent publication US20230405078A1, “DETECTION AND TREATMENT OF INTESTINAL FIBROSIS” (THE REGENTS OF THE UNIVERSITY OF CALIFORNIA, priority 2020, published 2023).

How the values were obtained:
[1] = test system: Human colonic CCD-18Co fibroblasts; experiment: TGF-β1-induced fibrogenesis in CCD-18Co fibroblasts; assay type: cell-based; settings: TGF-β1-treated CCD-18Co fibroblasts; elafin 1 μg/ml
Method: Cleveland Clinic IRB directives (IRB #17-1167). Primary non-IBD patient-derived colonic fibroblasts (H6231) were purchased from Cell Biologics. All primary colonic fibroblasts were cultured in fibroblast medium (M2267, Cell Biologics). Human colonic CCD-18Co fibroblasts (ATCC) were cultured in minimal essential medium Eagle's medium (MEM) containing 10% fetal bovine serum and 1% penicillin-streptomycin 6, 20. All fibroblasts were grown to 80% confluence and then switched to serum-free media overnight for experiments.
For activation of protease-activated receptors (PARs), fibroblasts were pretreated with 0.8% DMSO, 10 μM PAR1 agonist TRAP-6 (HY-P0078, MCE), 10 μM PAR2 agonist SLIGKV-NH2 (Protease-Activated Receptor-2, amide, HY-P0283, MCE), or 0.4 μg/ml PAR2-activating protease recombinant cathepsin S (1183-CY-010, R&D Systems) for 30 minutes. For miR205-5p activation, fibroblasts were transfected with (30 picomoles/well) either control (YM00479902) or miR205-5p miRCURY LNA mimic (YM00472340) from Qiagen via Lipofectamine 3000 transfection reagent (L3000001, ThermoFisher) in Opti-MEM (#31985062, ThermoFisher) overnight. For miR205-5p inhibition, fibroblasts were pretreated with 50nM either control (Y100199006) or miR205-5p power inhibitors (Y104101508-DDA) from Qiagen overnight. […]

ERK1/2 phosphorylation = experiment: Phospho-ERK1/2 ELISA in CCD-18Co fibroblasts; assay type: cell-based, human; settings: elafin 1 μg/ml, 2 hours
Method: FIG. 27. Elafin inhibited ERK1/2 phosphorylation in intestinal fibroblasts via PAR2. (A) Serum starved CCD-18Co and primary stricturing CD patient-derived colonic fibroblasts were transiently transfected with either control siRNA or ZEB1 siRNA overnight, followed by treatment with 10 ng/ml TGF-β1 or 100 μg/ml stricturing CD patient-derived serum exosomes (CDSE) for 24 hours. (B) CCD-18Co fibroblasts were treated with DMSO, PAR1 inhibitor (SCH79797), or PAR2 inhibitor (GB88) for 2 hours. GB88 inhibited ERK1/2 phosphorylation. (C) CCD-18Co fibroblasts were pretreated with DMSO, PAR1 agonist, or PAR2 agonists for 30 minutes, followed by TGF-β1 10 ng/ml. Two hours later, elafin (1 μg/ml) and incubated for 2 hours. Elafin inhibited ERK1/2 phosphorylation, which was reversed by PAR2 agonist. […] Phospho-ERK1/2, ProCOL1A1, COL1A2, and ZEB1 protein were determined by ELISA. miR205-5p expression was determined by real-time RT-PCR. […]
FIG. 28. […] (D) Quantification of cathepsin S signals (B7-8) and control signals (A1-2 and E1-2) on the protease array using Bio-Rad Image Lab Software. […] Phospho-ERK1/2 was determined by ELISA. […] ProCOL1A1 and COL1A2 were determined by ELISA. […]

B1: Cathepsin S: PAR2-activating protease recombinant cathepsin S (protein)
chain: QLHKDPTLDHHWHLWKKTYGKQYKEKNEEAVRRLIWEKNLKFVMLHNLEHSMGMHSYDLGMNHLGDMTSEEVMSLMSSLRVPSQWQRNITYKSNPNRILPDSVDWREKGCVTEVKYQGSCGACWAFSAVGALEAQLKLKTGKLVSLSAQNLVDCSTEKYGNKGCNGGFMTTAFQYIIDNKGIDSDASYPYKAMDQKCQYDSKYRAATCSKYTELPYGREDVLKEAVANKGPVSVGVDARHPSFFLYRSGVYYEPSCTQNVNHGVLVVGYGDLNGKEYWLVKNSWGHNFGEEGYIRMARNKGNHCGIASFPSYPEI
For B1, the “effect on elafin-mediated inhibition of collagen expression” value [1] was “reversed” and the “effect on elafin-mediated inhibition of ERK1/2 phosphorylation” value (ERK1/2 phosphorylation) was “reversed”.
